The nature of this data set: purification, SEC and SDS-PAGE. To be noted: glycan lost; control: wild-type mCD98hcED.

B1: mCD98hcED (murine CD98hc extracellular domain): N385D/T401A (protein)
parent chain: MSQDTEVDMKDVELNELEPEKQPMNAADGAAAGEKNGLVKIKVAEDETEAGVKFTGLSKEELLKVAGSPGWVRTRWALLLLFWLGWLGMLAGAVVIIVRAPRCRELPVQRWWHKGALYRIGDLQAFVGRDAGGIAGLKSHLEYLSTLKVKGLVLGPIHKNQKDEINETDLKQINPTLGSQEDFKDLLQSAKKKSIHIILDLTPNYQGQNAWFLPAQADIVATKMKEALSSWLQDGVDGFQFRDVGKLMNAPLYLAEWQNITKNLSEDRLLIAGTESSDLQQIVNILESTSDLLLTSSYLSNSTFTGERTESLVTRFLNATGSQWCSWSVSQAGLLADFIPDHLLRLYQLLLFTLPGTPVFSYGDELGLQGALPGQPAKAPLMPWNESSIFHIPRPVSLNMTVKGQNEDPGSLLTQFRRLSDLRGKERSLLHGDFHALSSSPDLFSYIRHWDQNERYLVVLNFRDSGRSARLGASNLPAGISLPASAKLLLSTDSARQSREEDTSLKLENLSLNPYEGLLLQFPFVA
Regarding B1, the stability_or_folding entry is “no change”.

The record behind these values is paper PMC7380666.
